Results from patent US7049079B1, “Coupling factor 6 inhibitor and potentiator and use thereof” (Daiichi Suntory Pharma Co.,Ltd., priority 1999, dated 2006).

Key:
[1] = test system: release of arachidonic acid from HUVEC (PLA2); test: Release of [3H]-labeled arachidonic acid from HUVEC; format: cell-based, human; conditions: for inhibition of release of arachidonic acid from HUVEC by PLA2 inhibitors: 40 μM AACOCF3, 1 μM OPC, 1 μM BEL
Description: HUVEC were cultured for 24 hours in the presence of [^3H]-labeled arachidonic acid. Then the medium was replaced by DMEM and the culture was continued in the presence of […] of CF6 at 37° C. for an additional 30 minutes. Then the release of the [^3H]-labeled arachidonic acid into the liquid culture was examined. […] The same test was carried out in the presence of 1 μM of bradykinin.
Next, the effects of a cPLA2 inhibitor (40 μM of AACOCF3: arachidonic acid […]), an sPLA2 inhibitor (1 μM of OPC; oleyloxyethylphosphorylcholine) and an iPLA2 inhibitor (1 μM of BEL: […]) of inhibiting the release of arachidonic acid form HUVEC were examined. […] Namely, the PLA2 participating in the release of arachidonic acid is cPLA2 (FIGS. 20 and 21).

[2] = test system: spontaneously hypertensive rats (SHR); test: Arterial blood pressure of anesthetized SHR, measured in the open manner from the carotid artery; format: in vivo, rat; conditions: SHR 15 weeks of age; rCF6 0.3, 1.0, 3.0 μg/kg bolus into femoral vein
Description: (§1) Blood pressure was measured in the open manner by inserting catheters directly into the aorta of rats anesthetized with 75 mg/kg of ketamine and 15 mg/kg of xylazine hydrochloride. Namely, two polyethylene catheters filled with physiological saline containing 20 U/ml of heparin were inserted respectively into the left carotid artery and the left femoral vein. Then the catheter inserted into the left carotid artery was connected to a pressure detector (Carrier Amplifier AP-601G, Nihon Kohden Co.). Each sample was dissolved in 200 μL of physiological saline and then administered via the vena cava.
(§2) SHR and WKY each 16 weeks of age were anesthetized and the anti-rCF6 antibody (0.3, 1.0 and 3.0 μg/kg) was administered by bolus injection into the femoral vein. Then the arterial blood pressure was measured in the open manner from the carotid artery.
(§3) Effects of the anti-rCF6 antibody on the effect of bradykinin of lowering rat blood pressure were examined. SHR and WKY each 16 weeks of age were anesthetized and bradykinin (0.3, 1.0 and 3.0 μg/kg) was cumulatively administered by bolus injection into the femoral vein. Then the arterial blood pressure was measured in the open manner from the carotid artery. […]
(§4) Effects of rCF6 on rat blood pressure were examined. […] Then the arterial blood pressure was measured in an open manner from the carotid artery.

[3] = test system: rats with normal blood pressure (WKY); test: Arterial blood pressure of anesthetized WKY, measured in the open manner from the carotid artery; format: in vivo, rat; conditions: WKY 15 weeks of age; rCF6 0.3, 1.0, 3.0 μg/kg bolus into femoral vein
Description: as §1, §2, §3, §4

[4] = test system: PGI2 production of human umbilical venal endothelial cells (HUVEC); test: Inhibition of PGI2 production (6-keto-PGF1α secreted into the medium) in HUVEC; format: cell-based
Description: The activity of inhibiting the PGI2 production was evaluated by measuring the stable metabolite of PGI2 (6-keto-PGF1α) secreted into the medium of smooth muscle cells collected from SHR mesenteric artery or human umbilical venal endothelial cells (HUVEC). Namely, the smooth muscle cells collected from SHR mesenteric artery were subcultured in a Dulbecco's modified Eagle medium (DMEM) containing 10% (v/v) of fetal calf serum until these cells attained the confluent state. HUVEC were proliferated in a synthetic medium (HuMedia, Kurabo Industries) containing 2% (v/v) of fetal calf serum, 10 ng/ml of EGF, 5 ng/ml of bFGF, 1 μg/ml of hydrocortisone and 10 μg/ml of heparin. The smooth muscle cells collected from SHR mesenteric artery or HUVEC were incubated for 30 minutes in the DMEM medium containing the sample to be analyzed and 6-keto-PGF1α secreted into the medium during the incubation period was determined.
HUVEC were cultured at 37° C. for 30 minutes in the DMEM containing 1, 10 and 100 nM of rCF6 prepared in Referential Example 2 and thus the inhibition of the PGI2 production by CF6 was examined. The production of PGI2 was measured with the guidance of the amount of 6-keto-PGF1α, which is a stable metabolite of PGI2, secreted into the medium. […] The same test was carried out in the presence of 1 μM of bradykinin.
Further, 10 nM of CF6 inhibited the increase in the PGI2 production due to 2 μg/ml of ionomycin but not the increase therein due to 10 ng/ml of arachidonic acid and 10 ng/ml of PGH2.

CCCCCCCC/C=C\CCCCCCCCOCCOP(=O)([O-])OCC[N+](C)(C)C [OPC, oleyloxyethylphosphorylcholine]
inhibition of release of arachidonic acid from HUVEC by PLA2 inhibitors [1]: cPLA2 inhibitor alone inhibited

CCCCC/C=C\C/C=C\C/C=C\C/C=C\CCCC(=O)C(F)(F)F [AACOCF3, arachidonic acid 3-fluoromethyl ketone]
inhibition of release of arachidonic acid from HUVEC by PLA2 inhibitors [1]: inhibited the release of arachidonic acid

O=C1O/C(=C/Br)CCC1c1cccc2ccccc12 (stereo not drawn) [BEL, bromoenolcholine]
inhibition of release of arachidonic acid from HUVEC by PLA2 inhibitors [1]: cPLA2 inhibitor alone inhibited

B1: rCF6: rat coupling factor 6, a 76 amino acid subunit of H+ ATP synthase (SEQ ID NO:2), recombinantly produced (protein)
chain: NKELDPVQKLFLDKIREYKAKRLASGGPVDTGPEYQQEVDRELFKLKQMYGKGEMDKFPTFNFEDPKFEVLDKPQS
modifications: Rat
average arterial blood pressure [2]: dose-dependently increased
average arterial blood pressure [3]: dose-dependently increased
increase in PGI2 production due to PGH2 ([4]; 10 nM CF6, 10 ng/ml PGH2): not
increase in PGI2 production due to arachidonic acid ([4]; 10 nM CF6, 10 ng/ml arachidonic acid): not
increase in PGI2 production due to ionomycin ([4]; 10 nM CF6, 2 μg/ml ionomycin): inhibited
PGI2 production (6-keto-PGF1α) ([4]; HUVEC, 1, 10 and 100 nM rCF6, 37° C., 30 minutes): dose-dependently inhibited
increase in PGI2 production due to bradykinin ([4]; HUVEC, 1, 10 and 100 nM rCF6, in the presence of 1 μM bradykinin): dose-independently inhibited
release of [3H]-labeled arachidonic acid ([1]; HUVEC, 1, 10 and 100 mM CF6, 37° C., 30 minutes): dose-dependently inhibited
bradykinin-promoted release of [3H]-labeled arachidonic acid ([1]; HUVEC, CF6 1, 10 and 100 mM, in the presence of 1 μM bradykinin): dose-dependently inhibited
